Test [1] addresses bovine complement factor I. Description: BLI. Particulars: 1600 nM PmSLP-1 mutant; biotinylated bovine FI on streptavidin sensors; 3 independent replicates; read off a plot.
Test [2] has as its target bovine complement factor I. Kind of test: biolayer interferometry. The settings on record: n=3; parent: 27 ± 6. In general terms: In BLI a coated tip is dipped into the sample, and binding shifts an interference pattern.
Test [3] addresses bovine complement factor I (bovine (B. taurus)). Description: cryo-EM structure; PmSLP-1 and FI mixed 5:1, complex isolated on Superdex Increase 200 in PBS pH 7.4, 0.25 mg/mL on gold grids, 40° tilt; dimer of the complex, protomer refined to 3.5 Å.
Test [4] shares this target. Description: BLI; biotinylated bovine FI (150 nM) on streptavidin biosensors, PmSLP-1 as analyte at 0-1600 nM, Octet RED96, 30°C, PBS pH 7.4 with 0.01% Tween 20; steady-state analysis, one-site fit.

Usually Kd stands for the free concentration of one partner at which half of the binding sites on the other are occupied at equilibrium, for simple one-to-one binding. “PmSLP-1^15 (PmSLP-1^15-318), surface lipoprotein of Pasteurella multocida strain 36950 K236E”: the response in test [1] turned out to be 0.24 AU. For the same substance, the Kd in test [2] was found to be 33 nM.

The substance “PmSLP-1^15 (PmSLP-1^15-318), surface lipoprotein of Pasteurella multocida strain 36950 D210A” yielded a response in test [1] of 0.14 AU. For the same substance, the Kd in test [2] turned out to be 272 nM.

Take “PmSLP-1^15 (PmSLP-1^15-318), surface lipoprotein of Pasteurella multocida strain 36950 I133D”: the response in test [1] turned out to be 0.24 AU. Further, the Kd in test [2] worked out at 43 nM.

In turn, “PmSLP-1^15 (PmSLP-1^15-318), surface lipoprotein of Pasteurella multocida strain 36950 E132R” registered a response in test [1] of 0.22 AU. Moreover, the dissociation constant Kd in test [2] turned out to be 28 nM.

The stoichiometry N is the number of molecules, sites or subunits per partner or assembly. For bovine complement factor I (enzyme), the stoichiometry N in test [3] amounted to 2.

“PmSLP-1^15 (PmSLP-1^15-318), surface lipoprotein of Pasteurella multocida strain 36950 L127D” showed a response in test [1] of 0.23 AU. The Kd in test [2] was found to be 85 nM.

“PmSLP-1^15 (PmSLP-1^15-318), surface lipoprotein of Pasteurella multocida strain 36950 D124R” gave a response in test [1] of 0.24 AU. Also, the Kd in test [2] came out at 53 nM.

“PmSLP-1^15 (PmSLP-1^15-318), surface lipoprotein of Pasteurella multocida strain 36950 (domain or fragment)”: the Kd in test [4] turned out to be 27 nM.

In turn, “PmSLP-1^15 (PmSLP-1^15-318), surface lipoprotein of Pasteurella multocida strain 36950 R167A” gave a response in test [1] of 0.18 AU. Further, the Kd in test [2] was 107 nM.

On to “PmSLP-1^15 (PmSLP-1^15-318), surface lipoprotein of Pasteurella multocida strain 36950 D121A”, for which, in test [1], the response worked out at 0.19 AU. In addition, the Kd in test [2] came to 117 nM.

For “PmSLP-1^95 (PmSLP-1^95-318 SERp) (domain or fragment)”, the dissociation constant (Kd) in test [4] was determined as 39 nM.

Consider “PmSLP-1^15 (PmSLP-1^15-318), surface lipoprotein of Pasteurella multocida strain 36950 E240A”, for which the response in test [1] was -0.0015 AU.

The values above are taken from doi:10.1101/2024.10.21.619360.
